Laboratory results from patent publication US20250177546A1, “ROR1-TARGETED BINDING MOLECULE AND USE THEREOF” (SANYOU BIOPHARMACEUTICALS CO., LTD., priority 2022, published 2025).

What was measured:
[1] = target: huROR1-His (human ROR1 ECD AA30-406 with C-terminal His tag, made in house) (human) (UniProt Q01973); experiment: Gator (BLI) Advanced Kinetics; antibody 30 nM, huROR1-His 480-7.5 nM
[2] = target: huROR1-His (human ROR1 ECD AA30-406 with C-terminal His tag, made in house) (human) (UniProt Q01973); experiment: ELISA, huROR1-His coated plate, goat anti-human Fc-HRP, OD450
[3] = target: huROR1-His (human ROR1 ECD AA30-406 with C-terminal His tag, made in house) (human) (UniProt Q01973); experiment: as above; remark: listed apart in the source
[4] = target: huROR1-His (human ROR1 ECD AA30-406 with C-terminal His tag, made in house) (human) (UniProt Q01973); experiment: as above; remark: listed apart in the source
[5] = target: huROR1-His (human ROR1 ECD AA30-406 with C-terminal His tag, made in house) (human) (UniProt Q01973); experiment: as above; remark: listed apart in the source
[6] = target: huROR1-His (human ROR1 ECD AA30-406 with C-terminal His tag, made in house) (human) (UniProt Q01973); experiment: as above; remark: listed apart in the source
[7] = target: huROR1-His (human ROR1 ECD AA30-406 with C-terminal His tag, made in house) (human) (UniProt Q01973); experiment: ELISA, huROR1-His coated at 2 µg/mL, goat anti-human Fc-HRP, OD450
[8] = target: huROR1-His (human ROR1 ECD AA30-406 with C-terminal His tag, made in house) (human) (UniProt Q01973); experiment: as above; remark: listed apart in the source
[9] = target: human ROR1 on cells (full-length human ROR1 on huROR1-HEK293 cells; human ROR1 on A549 and HT-29 tumor cells) (human) (UniProt Q01973); experiment: flow cytometry (FACS) on A549 tumor cells, anti-human IgG-Fc secondary antibody, MFI
human ROR1 on cells (full-length human ROR1 on huROR1-HEK293 cells; human ROR1 on A549 and HT-29 tumor cells) (human), sequence (Q01973 30-937): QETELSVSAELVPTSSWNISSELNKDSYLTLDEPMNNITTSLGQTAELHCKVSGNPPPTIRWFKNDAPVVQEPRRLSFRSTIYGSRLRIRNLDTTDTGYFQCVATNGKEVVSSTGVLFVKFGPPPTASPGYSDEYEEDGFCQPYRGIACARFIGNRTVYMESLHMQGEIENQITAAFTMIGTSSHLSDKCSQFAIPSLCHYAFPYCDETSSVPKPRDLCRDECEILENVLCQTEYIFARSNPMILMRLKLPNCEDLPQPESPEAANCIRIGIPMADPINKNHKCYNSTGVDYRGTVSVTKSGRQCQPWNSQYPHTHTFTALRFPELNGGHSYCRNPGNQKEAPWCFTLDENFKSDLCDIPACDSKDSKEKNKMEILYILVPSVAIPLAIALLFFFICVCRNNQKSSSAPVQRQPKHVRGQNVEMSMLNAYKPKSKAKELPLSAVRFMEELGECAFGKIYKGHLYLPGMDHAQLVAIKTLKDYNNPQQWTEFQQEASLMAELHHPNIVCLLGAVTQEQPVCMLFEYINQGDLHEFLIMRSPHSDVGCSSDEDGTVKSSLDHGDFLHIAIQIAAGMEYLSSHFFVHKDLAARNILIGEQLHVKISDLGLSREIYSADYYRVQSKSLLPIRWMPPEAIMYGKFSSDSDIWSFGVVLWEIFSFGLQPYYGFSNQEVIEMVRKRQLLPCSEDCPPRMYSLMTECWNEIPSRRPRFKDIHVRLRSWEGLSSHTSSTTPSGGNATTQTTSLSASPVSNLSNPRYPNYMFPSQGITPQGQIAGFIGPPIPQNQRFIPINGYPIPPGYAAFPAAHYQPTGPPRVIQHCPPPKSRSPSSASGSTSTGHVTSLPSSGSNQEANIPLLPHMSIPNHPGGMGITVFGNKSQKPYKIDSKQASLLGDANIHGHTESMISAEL

[10] = target: human ROR1 on cells (full-length human ROR1 on huROR1-HEK293 cells; human ROR1 on A549 and HT-29 tumor cells) (human) (UniProt Q01973); experiment: as above; remark: listed apart in the source
[11] = target: human ROR1 on cells (full-length human ROR1 on huROR1-HEK293 cells; human ROR1 on A549 and HT-29 tumor cells) (human) (UniProt Q01973); experiment: flow cytometry (FACS) on huROR1-HEK293 cells, anti-human IgG-Fc secondary antibody, MFI
[12] = target: human ROR1 on cells (full-length human ROR1 on huROR1-HEK293 cells; human ROR1 on A549 and HT-29 tumor cells) (human) (UniProt Q01973); experiment: as above; remark: listed apart in the source
[13] = target: huROR1-His (human ROR1 ECD AA30-406 with C-terminal His tag, made in house) (human) (UniProt Q01973); experiment: Biacore T200 SPR; huROR1-His amine-coupled (~75 RU), antibody 4 and 20 nM as analyte, 1:1 Langmuir fit
[14] = target: human ROR1 on cells (full-length human ROR1 on huROR1-HEK293 cells; human ROR1 on A549 and HT-29 tumor cells) (human) (UniProt Q01973); experiment: flow cytometry (FACS) on HT29 (HT-29) tumor cells, anti-human IgG-Fc secondary antibody, MFI

huROR1-His (human ROR1 ECD AA30-406 with C-terminal His tag, made in house) (human), sequence (Q01973 30-406 limits assumed): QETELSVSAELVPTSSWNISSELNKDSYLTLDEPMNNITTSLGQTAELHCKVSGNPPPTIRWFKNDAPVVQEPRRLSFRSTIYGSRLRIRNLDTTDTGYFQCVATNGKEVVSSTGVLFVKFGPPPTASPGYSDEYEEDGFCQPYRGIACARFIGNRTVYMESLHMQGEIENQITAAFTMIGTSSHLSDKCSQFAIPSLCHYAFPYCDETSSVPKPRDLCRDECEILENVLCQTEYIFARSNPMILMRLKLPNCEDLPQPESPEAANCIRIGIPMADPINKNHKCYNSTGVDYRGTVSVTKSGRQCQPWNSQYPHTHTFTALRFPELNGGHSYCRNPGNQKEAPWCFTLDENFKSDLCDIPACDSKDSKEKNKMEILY

Q: Which results are given for “Cirmtuzumab (positive control anti-ROR1 antibody, clone number 99961.1)”?
A: Kd [1]: 13.5 nM; koff [1]: 0.00712 s⁻¹; kon [1]: 529000 M⁻¹ s⁻¹; EC50 [2]: 3.24 ng/mL; EC50 [3]: 3 ng/mL; EC50 [4]: 2.56 ng/mL; EC50 [5]: 3.3 ng/mL; EC50 [6]: 3 ng/mL; EC50 [7]: 5.78 ng/mL; EC50 [8]: 5.12 ng/mL; EC50 (read off the curve) [9]: 3 ng/mL; EC50 (read off the curve) [10]: 10 ng/mL; EC50 (read off the curve) [11]: 60 ng/mL; EC50 (read off the curve) [12]: 50 ng/mL; Kd [13]: 1.98 nM; koff [13]: 0.00137 s⁻¹; kon [13]: 694000 M⁻¹ s⁻¹; t 1/2 [13]: 8.41 min; EC50 (read off the curve) [14]: 20 ng/mL
